Literature values as cited in article PMC8174820.

Tested on: Tyr134
Assay: chemical modification

For “Cellular retinoic acid binding protein 2 (CRABP2) (Homo sapiens (inferred; the review discusses the human proteome but does not name the species for CRABP2))”, which pKa is on record?
The pKa was “∼7.6”.
